According to doi:10.1101/2024.07.16.603698 (bioRxiv, 2024):

Biological target: full-length GST-tagged SARS-CoV-2 Nucleocapsid (N) protein (SARS-CoV-2, UniProt P0DTC9 1-419)
Experiment: pull-down

B1: human UPF2 truncated construct lacking 120 and 45 residues at the N- and C-termini (domain or fragment)
chain: MKEKEESIQLHQEAWERHHLRKELRSKNQNAPDSRPEENFFSRLDSSLKKNTAFVKKLKTITEQQRDSLSHDFNGLNLSKYIAEAVASIVEAKLKISDVNCAVHLCSLFHQRYADFAPSLLQVWKKHFEARKEEKTPNITKLRTDLRFIAELTIVGIFTDKEGLSLIYEQLKNIINADRESHTHVSVVISFCRHCGDDIAGLVPRKVKSAAEKFNLSFPPSEIISPEKQQPFQNLLKEYFTSLTKHLKRDHRELQNTERQNRRILHSKGELSEDRHKQYEEFAMSYQKLLANSQSLADLLDENMPDLPQDKPTPEEHGPGIDIFTPGKPGEYDLEGGIWEDEDARNFYENLIDLKAFVPAILFKDNEKSCQNKESNKDDTKEAKESKENKEVSSPDDLELELENLEINDDTLELEGGDEAEDLTKKLLDEQEQEDEEASTGSHLKLIVDAFLQQLPNCVNRDLIDKAAMDFCMNMNTKANRKKLVRALFIVPRQRLDLLPFYARLVATLHPCMSDVAEDLCSMLRGDFRFHVRKKDQINIETKNKTVRFIGELTKFKMFTKNDTLHCLKMLLSDFSHHHIEMACTLLETCGRFLFRSPESHLRTSVLLEQMMRKKQAMHLDARYVTMVENAYYYCNPPPAEKTVKKKRPPLQEYVRKLLYKDLSKVTTEKVLRQMRKLPWQDQEVKDYVICCMINIWNVKYNSIHCVANLLAGLVLYQEDVGIHVVDGVLEDIRLGMEVNQPKFNQRRISSAKFLGELYNYRMVESAVIFRTLYSFTSFGVNPDGSPSSLDPPEHLFRIRLVCTILDTCGQYFDRGSSKRKLDCFLVYFQRYVWWKKSLEVWTKDHPFPIDIDYMISDTLELLRPKIKLCNSLEESIRQVQDLEREFLIKLGLVNDKDSKDSMTEGENLEEDEEEEEGGAETEEQSGNESEVNEPEEEEGSDNDDDEGEEEEEENTDYLTDSNKENETDEENTEVMIKGGGLKHVPCVEDEDFIQALDKMMLENLQQRSGESVKVHQLDVAIPLHLKSQLRKGPPLGGGEGEAESADTMPFVMLTRKGNKQQFKILNVPMSSQLAANHWNQQQAEQEERMRMKKLTLDINERQEQED
- binding result: binds
